Eight molecules from patent publication US20180194851A1 (Pfizer, published 2018) can be followed below.

Substitutions are numbered along the chain they refer to.

Experiment [1] addresses T1, Recombinant human 4-1BB/Fc Chimera (R&D Systems #838-4B) (human, UniProt Q07011 24-186).
T1 construct: Bought protein; also called Human 4-1BB IgG1Fc chimera; not shown: Factor Xa-cleavable junction, human IgG1 Fc and 6xHistidine tag of the bought chimera
The experiment can be described thus: ELISA on directly coated human 4-1BB/Fc, IgG1.

Experiment [2] has as its target T1, Recombinant human 4-1BB/Fc Chimera (R&D …). The experiment can be described thus: ligand competition ELISA, 4-1BB_IgG1Fc to plate-bound 4-1BBL (competitor 4-1BBL).
Experiment [3] concerns the target T2, human 4-1BB on cells (human, UniProt Q07011 18-255).
T2 construct: Expressed on stably transfected HEK293/HEK293T cells, transduced 300-19 cells or PHA stimulated human PBMC; also called h41BB; hu4-1BB
The experiment can be described thus: FACS on transfected cells.

For another experiment, the target named is T3, Hu41BB N&E.1 (human, UniProt Q07011 18-255).
T3 construct: Human-to-dog mutant of the human 4-1BB extracellular domain, expressed on transduced 300-19 cells
T3 chain: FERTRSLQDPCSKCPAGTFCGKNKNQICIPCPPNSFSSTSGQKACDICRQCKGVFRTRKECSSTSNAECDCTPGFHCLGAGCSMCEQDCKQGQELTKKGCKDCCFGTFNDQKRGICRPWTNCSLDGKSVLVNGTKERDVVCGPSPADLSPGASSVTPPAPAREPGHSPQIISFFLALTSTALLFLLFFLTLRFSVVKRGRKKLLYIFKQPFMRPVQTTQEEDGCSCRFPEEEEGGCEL
Nature of the experiment: FACS, 100 nM antibody, transduced 300-19 cell pools.

The target in a further experiment is T4, Hu41BB N&E.6 (human, UniProt Q07011 18-255).
T4 construct: Human-to-dog mutant of the human 4-1BB extracellular domain, expressed on transduced 300-19 cells
T4 chain: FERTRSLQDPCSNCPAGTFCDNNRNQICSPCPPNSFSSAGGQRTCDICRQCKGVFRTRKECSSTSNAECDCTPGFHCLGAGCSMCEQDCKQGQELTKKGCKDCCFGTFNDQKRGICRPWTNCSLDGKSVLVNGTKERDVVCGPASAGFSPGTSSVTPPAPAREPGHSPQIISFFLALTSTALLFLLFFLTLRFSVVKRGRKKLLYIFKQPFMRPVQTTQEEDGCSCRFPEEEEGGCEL
The description is as above.

The target in another experiment is T5, Hu41BB N&E (human, UniProt Q07011 18-255).
T5 construct: Human-to-dog mutant of the human 4-1BB extracellular domain, expressed on transduced 300-19 cells
T5 chain: T3 chain with G21D, K22N, K24R, I29S
Described as above.

For another experiment, the target named is T6, Hu41BB N&E.5 (human, UniProt Q07011 18-255).
T6 construct: Human-to-dog mutant of the human 4-1BB extracellular domain, expressed on transduced 300-19 cells; also called 4-1BB Mutant N&E.5
T6 chain: T4 chain with K98Q, C104R, R117Q, R137S, V139A, A144S, S145P, G147D, F148L, T152A
The description is as above.

The target in experiment [4] is T2, human 4-1BB on cells. Nature of the experiment: FACS on HEK293T cells expressing human 4-1BB, IgG1.
A further experiment has as its target T7, OX-40 on 300.19 cells (UniProt P43489 29-277, limits assumed).
T7 construct: whole, on cells; also called CD134; TNFRSF4
T7 sequence (looked up): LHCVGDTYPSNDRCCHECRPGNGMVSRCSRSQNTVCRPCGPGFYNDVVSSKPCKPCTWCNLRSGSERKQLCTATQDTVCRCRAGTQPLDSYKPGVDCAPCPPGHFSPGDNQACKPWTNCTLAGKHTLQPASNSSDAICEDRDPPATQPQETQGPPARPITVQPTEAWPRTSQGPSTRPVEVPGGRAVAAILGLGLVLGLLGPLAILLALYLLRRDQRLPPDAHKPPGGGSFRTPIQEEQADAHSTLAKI
The experiment can be described thus: FACS on 300.19 cells expressing OX-40.

The target of a further experiment is T8, CD40 on 300.19 cells (UniProt P25942 21-277, limits assumed).
T8 construct: whole, on cells; also called TNFRSF5; 300.19 CD40
Nature of the experiment: FACS on 300.19 cells expressing CD40.

For experiment [5], the target named is T1, Recombinant human 4-1BB/Fc Chimera (R&D …). Nature of the experiment: ELISA on coated human 4-1BB IgG1Fc chimera.
Experiment [6] has the same target. Nature of the experiment: ELISA on directly coated human 4-1BB/Fc.
Experiment [7] deals with T2, human 4-1BB on cells. The experiment can be described thus: FACS on HEK293 cells expressing human 4-1BB.
The target in experiment [8] is T9, human 4-1BB (recombinant antigen, construct not stated) (human, UniProt Q07011 24-186).
T9 construct: It may be the 4-1BB/Fc chimera; also called CD137/HUMAN 4-1BB; unlabeled human 4-1BB
Nature of the experiment: SPR (Biacore 3000), Fab analyte on amine-coupled human 4-1BB.

Another experiment addresses T10, Hu41BB N&E.3 (human, UniProt Q07011 18-255).
T10 construct: Human-to-dog mutant of the human 4-1BB extracellular domain, expressed on transduced 300-19 cells
T10 chain: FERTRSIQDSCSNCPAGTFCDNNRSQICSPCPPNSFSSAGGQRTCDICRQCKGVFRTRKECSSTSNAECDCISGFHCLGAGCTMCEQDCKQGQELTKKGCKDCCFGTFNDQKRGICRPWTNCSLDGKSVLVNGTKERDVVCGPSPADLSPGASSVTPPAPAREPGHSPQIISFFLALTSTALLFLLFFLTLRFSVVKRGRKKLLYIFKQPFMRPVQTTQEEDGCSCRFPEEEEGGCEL
Nature of the experiment: FACS, 100 nM antibody, transduced 300-19 cell pools.

The target of the next experiment is T11, Hu41BB N&E.4 (human, UniProt Q07011 18-255).
T11 construct: Human-to-dog mutant of the human 4-1BB extracellular domain, expressed on transduced 300-19 cells
T11 chain: T3 chain with L7I, P10S, N25S, K52E, R58K, E60V, T72I, P73S, S83T
The experiment is described as above.

Experiment [9] concerns the target T12, human 4-1BB extracellular portion, amino acids 24-186 (Fc cleaved off with Factor Xa) (human, UniProt Q07011 24-186).
T12 construct: Made from the R&D Systems 4-1BB/Fc chimera by Factor Xa cleavage; also called recombinant human 4-1BB; the 4-1BB
The experiment can be described thus: SPR (Biacore 3000), antibody amine-coupled, 4-1BB 24-186 as analyte, 25 C.

T8 sequence (P25942 21-277 limits assumed): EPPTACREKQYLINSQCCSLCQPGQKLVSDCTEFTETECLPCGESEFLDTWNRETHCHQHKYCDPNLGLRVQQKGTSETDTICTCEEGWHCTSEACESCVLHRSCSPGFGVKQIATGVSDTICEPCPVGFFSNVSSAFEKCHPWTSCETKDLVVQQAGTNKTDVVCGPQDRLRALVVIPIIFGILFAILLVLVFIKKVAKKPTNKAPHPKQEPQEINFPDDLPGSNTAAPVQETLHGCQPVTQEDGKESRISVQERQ

B1: MOR-7361 (IgG1) (antibody, V domains shown)
VH: QVQLVESGGGLVQPGGSLRLSCAASGFTFSDYYMHWVRQAPGKGLEWVSVISGSGSNTYYADSVKGRFTISRDNSKNTLYLQMNSLRAEDTAVYYCARLYAQFEGDFWGQGTLVTVSS
VL: DIELTQPPSVSVAPGQTARISCSGDNIGSKYVSWYQQKPGQAPVLVIYSDSERPSGIPERFSGSNSGNTATLTISGTQAEDEADYYCQSWDGSISRVFGGGTKLTVL
notes: Human IgG1 format, lambda light chain; also called 7361_G1
On to B1, for which the EC50 in experiment [1] turned out to be 0.3 nM; in the experiment with human 4-1BB on cells [4], 0.8 nM; in experiment [5] it was 0.091 nM. Moreover, in experiment [2], the “% max inhibition” value was determined as 100%. In experiment [2], the IC50 is 0.172 nM. In the experiment with human 4-1BB on cells [3], the “fold selectivity for 4-1BB versus OX-40 and CD40” value is at least 100 fold. Also, the binding result was “binds” with Hu41BB N&E.1; “binds” in the experiment with Hu41BB N&E.6; “binds” in the experiment with Hu41BB N&E; “binds” with Hu41BB N&E.5; “no binding (tested: 1000 nM)” with OX-40 on 300.19 cells; “no binding (tested: 1000 nM)” in the experiment with CD40 on 300.19 cells.

B2: Fab-7361 (Fab, V domains shown)
VH: B1 VH
VL: B1 VL
As for B2, the figures for the EC50 (in [6]; with human 4-1BB on cells [7]) were 0.6 nM and 105 nM, respectively. The Kd in experiment [8] turned out to be 118 nM.

B3: MOR-6032 (IgG1) (antibody, V domains shown)
VH: QVQLVQSGAEVKKPGSSVKVSCKASGGTFNSYAISWVRQAPGQGLEWMGGIIPGFGTANYAQKFQGRVTITADESTSTAYMELSSLRSEDTAVYYCARKNEEDGGFDHWGQGTLVTVSS
VL: DIELTQPPSVSVAPGQTARISCSGDNLGDYYASWYQQKPGQAPVLVIYDDSNRPSGIPERFSGSNSGNTATLTISGTQAEDEADYYCQTWDGTLHFVFGGGTKLTVL
notes: Human IgG1 format, lambda light chain; also called 6032_G1
In the case of B3, the binding result in the experiment with Hu41BB N&E.3 is given as “binds”; with OX-40 on 300.19 cells, “no binding (tested: 1000 nM)”; with CD40 on 300.19 cells, “no binding (tested: 1000 nM)”.

B4: MOR-7483 (IgG1) (antibody, V domains shown)
VH: QVQLVQSGAEVKKPGESLKISCKGSGYSFSTYWISWVRQMPGKGLEWMGKIYPGDSYTNYSPSFQGQVTISADKSISTAYLQWSSLKASDTAMYYCARGYGIFDYWGQGTLVTVSS
VL: DIELTQPPSVSVAPGQTARISCSGDNIGDQYAHWYQQKPGQAPVVVIYQDKNRPSGIPERFSGSNSGNTATLTISGTQAEDEADYYCSTYTFVGFTTVFGGGTKLTVL
notes: Human IgG1 format, lambda light chain; also called 7483_G1
Take B4: the binding result with Hu41BB N&E.4 is “binds”; with Hu41BB N&E.3, “binds”; with OX-40 on 300.19 cells, “no binding (tested: 1000 nM)”; with CD40 on 300.19 cells, “no binding (tested: 1000 nM)”.

B5: MOR-7480.2 (IgG1) (antibody, V domains shown)
VH: B4 VH with Q1E, K19R
VL: SYELTQPPSVSVSPGQTASITCSGDNIGDQYAHWYQQKPGQSPVVVIYQDKNRPSGIPERFSGSNSGNTATLTISGTQAMDEADYYCATYTGFGSLAVFGGGTKLTVL
notes: Human IgG1 format
On to B5, for which the binding result with Hu41BB N&E.4 and in the experiment with Hu41BB N&E.3 was “binds” throughout.

B6: MOR-7480 (IgG2) (antibody, V domains shown)
VH: B4 VH
VL: DIELTQPPSVSVAPGQTARISCSGDNIGDQYAHWYQQKPGQAPVVVIYQDKNRPSGIPERFSGSNSGNTATLTISGTQAEDEADYYCATYTGFGSLAVFGGGTKLTVLG
In [9], B6 came in with a Kd of 0.57 nM, a koff of 0.00023 s⁻¹, a kon of 450000 M⁻¹ s⁻¹ and a t1/2 of 50 min. Also, in experiment [2], the “% max inhibition” value stood at 98% and the IC50 came out at 0.125 nM. Moreover, the EC50 in experiment [5] is 0.122 nM.

B7: MOR-7483.1 (IgG1) (antibody, V domains shown)
VH: B4 VH with Q1E, K19R
VL: B5 VL with V45L, A88S, G92F, F93V, S95F, L96T, A97T
notes: Germlined version of MOR-7483, human IgG1 format
Consider B7, for which, in experiment [9], binding was characterised by a dissociation constant (Kd) of 28 nM, the koff is 0.022 s⁻¹ and the kon was 800000 M⁻¹ s⁻¹.

B8: MOR-7483 (IgG2) (antibody, V domains shown)
VH: B4 VH
VL: B6 VL with A88S, G92F, F93V, S95F, L96T, A97T
notes: also called 7483_G2
In the case of B8, the binding result with Hu41BB N&E.4 and in the experiment with Hu41BB N&E.3 was “binds” each time.
